In publication PMC4366279 (PLoS ONE, 2015):

Key:
TbREL1 E444A = molecular target: T1, TbREL1 E444A (Trypanosoma brucei, UniProt P86926 45-469, E444A, [35S]-methionine labelled); experiment: pull-down; His6-TbREL1 TNT mixture mixed with an equal volume of untagged KREPA2 TNT mixture, captured on magnetic His-tag isolation beads (Dynabeads); binding buffer 50 mM NaPO4 pH 8.0, 300 mM NaCl, 0.01% Tween 20; 20-30 min at 4°C; three washes; [35S]-methionine-labelled proteins on 10% SDS-PAGE, PhosphorImager; KREPA2-only control for background; details: partners not purified
T1 construct: Site-directed mutagenesis of TbREL1-pET30a; source: in vitro translated (TNT reticulocyte lysate coupled transcription and translation system, Promega); not shown: His6, N-terminal, kept
T1 sequence: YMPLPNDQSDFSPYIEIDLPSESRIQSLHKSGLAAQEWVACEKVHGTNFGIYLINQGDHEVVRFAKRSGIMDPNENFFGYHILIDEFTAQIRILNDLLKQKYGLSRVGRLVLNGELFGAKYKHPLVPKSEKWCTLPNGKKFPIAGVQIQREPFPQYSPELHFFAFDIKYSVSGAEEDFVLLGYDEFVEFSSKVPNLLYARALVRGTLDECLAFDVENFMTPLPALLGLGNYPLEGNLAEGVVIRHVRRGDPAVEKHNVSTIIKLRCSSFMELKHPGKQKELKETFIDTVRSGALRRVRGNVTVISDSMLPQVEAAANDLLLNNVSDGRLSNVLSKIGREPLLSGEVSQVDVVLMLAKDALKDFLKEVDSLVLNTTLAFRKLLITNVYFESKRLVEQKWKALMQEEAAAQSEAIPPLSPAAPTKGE

TbREL1 K441A = molecular target: T2, TbREL1 K441A (Trypanosoma brucei, UniProt P86926 45-469, K441A, [35S]-methionine labelled); experiment: as above; details: partners not purified
T2 construct: Site-directed mutagenesis of TbREL1-pET30a; source: in vitro translated (TNT reticulocyte lysate coupled transcription and translation system, Promega); not shown: His6, N-terminal, kept
T2 sequence: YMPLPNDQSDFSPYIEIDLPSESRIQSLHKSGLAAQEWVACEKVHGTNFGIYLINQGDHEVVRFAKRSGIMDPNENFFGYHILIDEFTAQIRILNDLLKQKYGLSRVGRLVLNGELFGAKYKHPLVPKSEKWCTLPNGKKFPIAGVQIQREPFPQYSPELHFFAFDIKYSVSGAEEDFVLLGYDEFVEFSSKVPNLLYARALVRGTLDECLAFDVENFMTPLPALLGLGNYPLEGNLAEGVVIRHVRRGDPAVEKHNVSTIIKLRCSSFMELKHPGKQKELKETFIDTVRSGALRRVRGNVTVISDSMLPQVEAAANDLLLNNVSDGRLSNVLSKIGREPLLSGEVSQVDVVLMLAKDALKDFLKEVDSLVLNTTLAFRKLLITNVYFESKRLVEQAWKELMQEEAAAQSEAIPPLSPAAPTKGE

TbREL1 F206A = molecular target: T3, TbREL1 F206A (Trypanosoma brucei, UniProt P86926 45-469, F206A, [35S]-methionine labelled); experiment: as above; details: partners not purified
T3 construct: Site-directed mutagenesis of TbREL1-pET30a; source: in vitro translated (TNT reticulocyte lysate coupled transcription and translation system, Promega); not shown: His6, N-terminal, kept
T3 sequence: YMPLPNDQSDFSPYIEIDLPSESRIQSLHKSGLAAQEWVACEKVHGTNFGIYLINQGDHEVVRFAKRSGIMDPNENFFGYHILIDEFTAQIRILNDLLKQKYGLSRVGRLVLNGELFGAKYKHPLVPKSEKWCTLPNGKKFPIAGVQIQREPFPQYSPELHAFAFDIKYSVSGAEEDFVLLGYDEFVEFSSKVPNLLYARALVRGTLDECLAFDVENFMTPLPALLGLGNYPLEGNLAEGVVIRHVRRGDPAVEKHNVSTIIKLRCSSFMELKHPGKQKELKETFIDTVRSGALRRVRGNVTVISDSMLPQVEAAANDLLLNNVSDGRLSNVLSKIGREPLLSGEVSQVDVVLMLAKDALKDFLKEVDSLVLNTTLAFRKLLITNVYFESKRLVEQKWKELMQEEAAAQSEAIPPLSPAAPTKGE

[1] = molecular target: T4, T. brucei RNA Editing Ligase 1 (TbREL1), full length wild type (Trypanosoma brucei, UniProt P86926 45-469, [35S]-methionine labelled); experiment: cell-based or functional assay
T4 sequence: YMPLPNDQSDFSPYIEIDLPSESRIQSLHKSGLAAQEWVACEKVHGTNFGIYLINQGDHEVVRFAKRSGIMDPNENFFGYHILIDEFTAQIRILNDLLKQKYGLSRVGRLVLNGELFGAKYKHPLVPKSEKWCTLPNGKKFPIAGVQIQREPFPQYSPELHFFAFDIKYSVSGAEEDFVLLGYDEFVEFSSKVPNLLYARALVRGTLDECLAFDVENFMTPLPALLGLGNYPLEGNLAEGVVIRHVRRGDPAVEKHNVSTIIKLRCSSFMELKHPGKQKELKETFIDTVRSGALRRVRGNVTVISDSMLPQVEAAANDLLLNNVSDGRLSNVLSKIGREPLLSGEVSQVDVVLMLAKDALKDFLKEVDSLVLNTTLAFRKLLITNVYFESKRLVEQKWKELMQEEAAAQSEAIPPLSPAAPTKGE

B1: KREPA2 (natural protein)
chain: MYRRFFRSAAVKHLGTTSAQCLMRATKYPCGAMCRNASSCHPQTLGYQQRFQSTTDKKFHCSVCKKPFRLEMAAKLHLQQAHGGDGSVEAGPGPGVEASSVNVVSTPVPSPISPVERTFVDEEERRPRRMRPTPKPLHQPDRDIPAAAMEEMLGVWDKIGLNRLEGNFVHSTMVMKVFAAPPDVSEIPLYEHVAPEGENPFDSLDHMTTGTVDATYVGHDAFAEVDLVDPFVAAPDQTLNPFRAGKVRNPFTRISPTQREVVKPLQPPQPKEEPLKAPVTPFGQLPMFGQTREPSASFAAAAVSVQAAANPNEVSSPFAAAVSSSPFVGQVASPFAPAQDVAGSPFEASPCAASSPFVTAGGQETSPFAAPSTPASFGQGSLFPPMGTGAPGFTAITETEQRQQELEHGCPTCGKKFSTFEGAAMHSKSKHGIVLESKKVKDRLNRKGVPDLPAYVPSPVDLSSTSPFGTRSAIGASWAETELIPHAQCVSNITIVGRVLDVSQASENVSHVTVFVEGERSGEEETLTLCCFGEVSQKIRGTLKRNATIFASGTLRLHPVYEASNNKYYVSPVVHVSMPTGTLAVIT
modifications: [35S]-methionine labelled
notes: KREPA2 of T. brucei, the KREPA2 open reading frame, expressed untagged (63 kDa); source: in vitro translated (TNT reticulocyte lysate coupled transcription and translation system, Promega)
relative pulldown (% of the KREPA2 pulled down by TbREL1 WT) (TbREL1 E444A): < 50%
relative pulldown (% of the KREPA2 pulled down by TbREL1 WT) (TbREL1 K441A): < 50%
relative pulldown (% of the KREPA2 pulled down by TbREL1 WT) (TbREL1 F206A): < 50%
adenylylation activity of TbREL1, enhancement in the presence of equimolar KREPA2 [1]: 6.7 fold
ligation activity of TbREL1 (pre-cleaved RNA ligation assay), enhancement in the presence of equimolar KREPA2 [1]: 3.6 fold
